# B1: library; numbered along this chain (parent)
# chain: MRKPRAAVGSGHRKQAASQEGRQKHAKNNSQAKPSACDGLARQPEEVVLQASVSSYHLFRDVAEVTAFRGSLLSWYDQEKRDLPWRRRAEDEMDLDRRAYAVWVSEVMLQQTQVATVINYYTGWMQKWPTLQDLASASLEEVNQLWAGLGYYSRGRRLQEGARKVVEELGGHMPRTAETLQQLLPGVGRYTAGAIASIAFGQATGVVDGNVARVLCRVRAIGADPSSTLVSQQLWGLAQQLVDPARPGDFNQAAMELGATVCTPQRPLCSQCPVESLCRARQRVEQEQLLASGSLSGSPDVEECAPNTGQCHLCLPPSEPWDQTLGVVNFPRKASRKPPREESSATCVLEQPGALGAQILLVQRPNSGLLAGLWEFPSVTWEPSEQLQRKALLQELQRWAGPLPATHLRHLGEVVHTFSHIKLTYQVYGLALEGQTPVTTVPPGARWLTQEEFHTAAVSTAMKKVFRVYQGQQPGTCMGSKRSQVSSPCSRKKPRMGQQVLDNFFRSHISTDAHSLNSAAQ
# Variants of: B1
# Assay: 8OG:A repair function score (normalized; synonymous = 0, nonsense = -1) (normalized log-likelihood score); higher = more repair activity (WT-like)
# Conditions: with 8OG:A DNA repair reporter (GFP) in HEK-293 MUTYH KO cells
# Method in brief: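 Lentiviral MUTYH cDNA NNN codon-scan libraries in HEK-293 MUTYH knockout cells (10 pg/ml doxycycline) were co-transfected with an 8OG:A GFP repair reporter plus mCherry. At 72 h, viable mCherry+ cells were sorted into GFP+ (repair) and GFP− bins, three replicates per tile, then tile amplicons were sequenced. Per-tile Rosace fitness scores became a normalized repair function score anchored on synonymous and nonsense distributions. Synonymous medians were set to 0 and nonsense to -1; variants under 300 counts per million at the start were removed.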
row,Variant,8OG:A repair function score
1,R281D,-0.447
2,R281C,-0.173
3,R219L,-0.542
4,R219S,-0.772
5,G188F,-1.06
6,G188Q,-0.909
7,G188P,-0.845
8,G236F,0.0301
9,S52M,-0.00303
10,S52P,-0.0118
11,E342G,-0.00875
12,E342I,-0.00523
13,W85D,-1.51
14,E168H,-0.103
15,Q126R,0.0261
16,E45I,-0.0125
17,Y152P,-1.28
18,Y152Q,-0.592
19,Y152E,-1.16
20,T439N,-0.0163
21,G70P,-0.126
22,E452L,-0.252
23,T440P,-0.041
24,T440I,-0.117

row,Variant,8OG:A repair function score
1,I421H,-0.201
2,H312K,0.0995
3,L95H,-0.053
4,L95Y,-0.0972
5,E413P,-0.386
6,D208P,-1.04
7,L149V,-0.906
8,L149D,-1.19
9,V117D,-1
10,L268Q,-0.0131
11,W321C,-0.313
12,D82Y,-0.0661
13,I221C,-0.728
14,I221L,-0.449
15,I221M,-0.523
16,G475I,-0.00703
17,S54Y,0.00243
18,Q78L,-0.0196
19,L392F,-0.647
20,R81T,-0.765
21,K337H,-0.0482
22,Q351T,-0.0645
23,V327N,-0.696
24,R42N,0.0413

row,Variant,8OG:A repair function score
1,R42Q,0.102
2,D249T,-0.459
3,M108Q,-0.453
4,M108Y,-0.819
5,P316V,-0.121
6,P316E,0.0013
7,T116S,-0.0572
8,Y120V,-0.224
9,M93P,-0.0336
10,M93C,0.00101
11,G258F,-1.24
12,G368I,-0.7
13,F453M,-0.51
14,L430I,-0.29
15,L423D,-0.261
16,L411R,-0.222
17,L411P,-0.665
18,L411M,-0.193
19,P383D,0.0298
20,P383V,-0.163
21,P306I,-0.0314
22,A280I,-0.189
23,P244G,-0.385
24,T460R,-0.0566

row,Variant,8OG:A repair function score
1,P264A,-0.0364
2,P264W,-0.113
3,T228L,0.00837
4,E302I,-0.284
5,V458G,-0.853
6,S486I,-0.0359
7,Q202P,-0.931
8,Q202F,-0.471
9,E160H,-0.264
10,V414L,-0.0973
11,E275C,-0.0803
12,E275H,0.015
13,R364A,-0.285
14,K3V,-0.0444
15,R189M,-0.341
16,V114M,-1.07
17,V114I,-0.181
18,D91E,-0.0053
19,G293W,0.000227
20,N143M,0.113
21,L313G,-0.386
22,K164D,-0.483
23,A445G,-0.0675
24,L349M,0.0308

row,Variant,8OG:A repair function score
1,S515I,-0.0207
2,R332M,-0.332
3,L139D,-0.831
4,K390N,0.177
5,K390C,0.0921
6,K390M,-0.0263
7,K390W,-0.444
8,R213C,-1.03
9,V62D,-0.0781
10,V62Y,0.00694
11,A115D,-0.0868
12,L325Y,-0.173
13,L325W,-0.0969
14,L325A,-0.0759
15,P267V,-0.195
16,A405R,0.00307
17,Q394C,-0.273
18,D96G,-0.0459
19,D96R,-0.506
20,D96E,-0.143
21,G161K,-1.07
22,T260D,-0.355
23,T260R,-0.0323
24,T260S,-0.104

row,Variant,8OG:A repair function score
1,R163H,-0.238
2,S276A,0.0102
3,M478Q,0.0193
4,N251G,-0.951
5,L373Y,-0.225
6,A334C,-0.0888
7,Q240A,-0.971
8,Q240T,-0.972
9,Q111L,-0.931
10,P185R,-0.264
11,P185F,-0.285
12,L49G,-0.027
13,L49S,0.027
14,V485Q,-0.0322
15,V485D,0.0102
16,R482E,0.00949
17,R88A,0.00657
18,R88L,0.00676
19,R88E,-0.00364
20,H454W,0.536
21,G356L,-0.2
22,G356I,-0.348
23,I359K,-0.27
24,S335Q,-0.044

row,Variant,8OG:A repair function score
1,S335K,0.029
2,T176Q,-0.0945
3,L145F,0.0113
4,G434D,-0.275
5,S318Q,-0.0273
6,S318C,-0.0155
7,S318E,0.0139
8,S318V,-0.155
9,A199W,-0.8
10,N517W,-0.0342
11,K127H,0.135
12,L501Q,0.02
13,A147E,-0.144
14,C314L,-0.616
15,V379E,-0.777
16,V379S,-0.0246
17,A192F,-1.12
18,A192H,-0.926
19,A212D,-0.814
20,R154K,-0.609
21,V500C,-0.0118
22,S480N,0.0064
23,S480G,0.00341

# Reference: the supplement of paper PMC11908140
